Experimental data as given in patent EP4670793A1.

Target: human C1q (human) (UniProt P02745)
Experiment: C1q (50 nM) with 100 nM antibody on TNFa-activated HUVECs; bound C1q detected with biotinylated polyclonal anti-C1q and imaging; normalised to isotype IgG

UniProt P02745, sequence (P02745 23-245, chain 1 of 3): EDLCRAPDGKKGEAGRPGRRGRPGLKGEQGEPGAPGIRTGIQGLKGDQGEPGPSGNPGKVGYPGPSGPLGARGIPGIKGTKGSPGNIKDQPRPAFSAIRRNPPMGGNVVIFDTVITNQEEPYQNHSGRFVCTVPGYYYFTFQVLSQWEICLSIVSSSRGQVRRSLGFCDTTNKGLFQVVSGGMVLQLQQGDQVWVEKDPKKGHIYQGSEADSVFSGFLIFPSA
UniProt P02745, sequence (chain, as listed by the source, chain 2 of 3): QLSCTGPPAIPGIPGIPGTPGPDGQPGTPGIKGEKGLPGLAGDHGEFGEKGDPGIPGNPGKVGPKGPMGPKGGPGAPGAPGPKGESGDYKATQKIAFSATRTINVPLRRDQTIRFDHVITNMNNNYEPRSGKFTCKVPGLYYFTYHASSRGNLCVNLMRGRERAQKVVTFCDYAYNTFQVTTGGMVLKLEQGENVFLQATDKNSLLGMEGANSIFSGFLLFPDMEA
UniProt P02745, sequence (chain, as listed by the source, chain 3 of 3): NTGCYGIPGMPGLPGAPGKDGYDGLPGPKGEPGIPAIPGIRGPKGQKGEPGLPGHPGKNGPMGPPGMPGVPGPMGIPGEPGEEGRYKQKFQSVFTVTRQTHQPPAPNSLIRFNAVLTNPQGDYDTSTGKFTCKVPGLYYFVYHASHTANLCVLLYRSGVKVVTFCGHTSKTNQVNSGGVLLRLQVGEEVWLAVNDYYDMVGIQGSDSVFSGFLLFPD

For “control antibody comprising murine heavy and light chain variable regions of the anti-C1q antibody M1 (Annexon Biosciences) with hIgG1 and kappa constant regions”, the % inhibition of binding of C1q to activated endothelial cells was 94%.
